The subject of assay [1] is EAHY cell surface proteins (~75 kDa and ~95 kDa). Kind of assay: S-tag-K5 affinity pull-down of biotinylated EAHY surface proteins. Format: binding. To be noted: 100 nM S-tag-K5; 1 μM peptides, 10 μM cold rK5. As to the method: The second method used to identify cell surface rK5 binding proteins was described previously (Zhang, J. C., et al, supra). Surface proteins on 4×10^6 EaHy cells were labeled with NHS-biotin. The cells were washed and lysed (M-Per, Pierce). Cell lysates were mixed with S-tag K5 for 1 hour at room temperature. S-tag K5 bound proteins were precipitated with S-protein agarose (Pierce). Bound proteins were eluted with excess rK5 or with excess PRKLYDY (SEQ ID NO:1) peptide. Eluted proteins were visualized with avidin-HRP and a chemiluminescent substrate. Mass spectroscopic analysis was used to identify the major protein bands.
In particular, surface proteins on 1×10^6 EAHY cells were labeled with NHS-biotin. The cells were washed 3× with PBS and lysed with M-pur. Cell lysates were mixed with (A) 100 nM S-tag-K5, (B) 100 nM S-tag-K5 plus 1 μM PRKLYDY, (C) 100 nM S-tag-K5 plus 10 μM cold rK5 and (D) 100 nM S-tag-K5 and N-terminal K5 peptide at 1 μM for 1 hour at room temperature. The K5 binding proteins were precipitated with S-protein-agarose. Bound proteins were eluted with 50 mM glycine buffer at pH 3.0 and run for PAGE analysis. Surface proteins (biotinylated) that bind K5 were visualized with avidin-HPR and a chemiluminescent substrate.

Assay [2] concerns the target T1, GRP78 (bovine brain) (Bos taurus, UniProt Q0VCX2).
T1 construct: from tissue; host or cells: bovine brain
Kind of assay: Ultracentrifugation binding of I125rK5(dog) with GRP78. To be noted: 1 nM I125rK5(dog) + 1.5 nM GRP78; peptides 100 nM, rK5 1 nM. As to the method: Ultra centrifugation with 50,000 MW cut off filters was used with iodinated recombinant dog K5 (I^125rKS(dog)) and GRP78 (bovine brain). The GRP78 and I^125rK5 (dog) were incubated for 1 hour at room temperature. The solution was then transferred to ultracentrifuges and spun at 10,000×g for 2 min. The top chamber contained GRP78 (mw 78,000) and I^125rK5 (dog) that bound. The top and bottom solutions were counted for I125. Column A: 1 nM I^125rK5(dog). Column B: 1 nM I^125rK5 (dog)+1.5 nM GRP78. Column C: 1 nM I^125rK5(dog)+1.5 nM GRP78+100 nM N-terminal K5 peptide, LLPDVETPSEED. Column D: 1 nM I^125rK5(dog)+1.5 nM GRP78±100 nM active site K5 peptide PRKLYDY. Column E: 1 nM I^125rK5(dog)+1.5 nM GRP78+1 nM rK5 (unlabeled). The GRP78 bound to the labeled rK5 causing its retention on the top of the filter.

Assay [3] deals with T2, recombinant human GRP78 (rGRP78) (Homo sapiens, UniProt P11021).
T2 construct: host or cells: yeast
T2 sequence (P11021 19-654): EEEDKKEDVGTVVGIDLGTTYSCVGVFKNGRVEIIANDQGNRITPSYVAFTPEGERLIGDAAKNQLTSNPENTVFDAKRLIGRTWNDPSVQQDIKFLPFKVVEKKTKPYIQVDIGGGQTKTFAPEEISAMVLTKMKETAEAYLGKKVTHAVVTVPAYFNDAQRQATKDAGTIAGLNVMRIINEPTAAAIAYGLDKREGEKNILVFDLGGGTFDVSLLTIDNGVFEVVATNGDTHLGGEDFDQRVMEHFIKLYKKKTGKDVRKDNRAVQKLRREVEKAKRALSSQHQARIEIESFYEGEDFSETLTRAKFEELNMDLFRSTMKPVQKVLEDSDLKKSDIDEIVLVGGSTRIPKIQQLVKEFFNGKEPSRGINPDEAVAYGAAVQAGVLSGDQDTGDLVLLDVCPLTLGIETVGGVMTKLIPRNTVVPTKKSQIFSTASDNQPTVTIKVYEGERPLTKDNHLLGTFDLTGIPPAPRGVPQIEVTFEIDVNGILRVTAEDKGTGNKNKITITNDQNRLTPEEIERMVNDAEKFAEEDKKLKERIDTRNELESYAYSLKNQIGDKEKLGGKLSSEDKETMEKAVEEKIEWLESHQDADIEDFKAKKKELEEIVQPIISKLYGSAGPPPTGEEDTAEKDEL
Kind of assay: Equilibrium dialysis of rGRP78 and 3HK5. It counts as binding. To be noted: competition dialysis, 2 nM GRP78 and 2 nM 3HK5; mutant up to 25-fold excess of GRP78. As to the method:
FIG. 14A is a graph showing equilibrium dialysis of recombinant GRP78 (rGRP78) and ^3HK5. ^3HK5 was added to one side of an equilibrium chamber at concentrations from 0.1 to 3 nM. 2 nM GRP78 was added to the other side of the chamber with a […] mwco filter between. ^3HK5 was allowed to equilibrate to both side of the chamber for 72 hours at room temperature. The amount of ^3HK5 on the GRP78 side of the chamber was compared to chamber with ^3HK5 alone to obtain the bound verses free rK5 distribution.
FIG. 14B is a graph showing competition binding dialysis rGRP78 and ^3HK5. Experiments were performed with 2 nM GRP78 and 2 nM ^3HK5 using rK5(K82A) mutant and unlabeled rK5 at various concentrations from 0.5 to 50 nM. The amount of ^3HK5 on both sides of the chamber was measured after 72 hours and compared to the control.
Binding of rK5 to rGRP78 was measured using equilibrium dialysis (Kariv I, Cao H, Oldenburg K R. Development of a high throughput equilibrium dialysis method. J Pharm Sci. 2001 May; 90(5):580-87). In the top well of a 96 well equilibrium dialyzer (molecular weight cut off 50K Daltons, Harvard Apparatus, Holliston, M A) 150 μl of 10 nM rGRP78 was added. In the reciprocal (bottom) chamber, 150 μl of increasing concentrations from 0.1 to 50 nM ^3HK5 was added. The chambers were shaken at room temperature for 72 hours. […]
A general note: Equilibrium dialysis compares concentrations on both sides of a semipermeable membrane.

The target of assay [4] is T3, recombinant GRP78 ATPase domain (Homo sapiens, UniProt P11021).
T3 construct: NMR studies with a recombinant GRP78 ATPase domain
T3 sequence (P11021 19-408): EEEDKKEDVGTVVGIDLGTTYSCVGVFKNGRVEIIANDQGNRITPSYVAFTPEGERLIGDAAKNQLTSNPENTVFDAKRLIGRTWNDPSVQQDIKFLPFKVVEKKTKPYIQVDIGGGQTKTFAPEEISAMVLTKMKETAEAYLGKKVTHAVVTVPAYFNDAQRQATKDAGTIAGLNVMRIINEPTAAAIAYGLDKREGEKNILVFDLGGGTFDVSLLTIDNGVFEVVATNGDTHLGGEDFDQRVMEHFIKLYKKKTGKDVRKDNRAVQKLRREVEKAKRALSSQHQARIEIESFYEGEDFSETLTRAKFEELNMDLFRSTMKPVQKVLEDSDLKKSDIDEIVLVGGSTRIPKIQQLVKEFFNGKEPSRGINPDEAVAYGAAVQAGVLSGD
Kind of assay: NMR binding to recombinant GRP78 ATPase domain.

T1 sequence (Q0VCX2 20-655): as the sequence (P11021 19-654) above, with I114V, G626S, D629E, T630A, E632D counted along it

B1: rK5: recombinant kringle 5 fragment of human plasminogen (residues 450-543), expressed in E. coli or yeast (protein)
chain: LLPDVETPSEEDCMFGNGKGYRGKRATTVTGTPCQDWAAQEPHRHSIFTPETNPRAGLEKNYCRNPDGDVGGPWCYTTNPRKLYDYCDVPQCAA
For the molecule B1, the “competition of protein binding to the S-tag K5 column” value in assay [1] was “competed”. Besides, the “inhibition of I125rK5(dog) binding to GRP78” value in assay [2] is recorded as “inhibited”. For the same molecule, in assay [3], the “blocking of 3HK5 binding to rGRP78” value was “blocked”. Further, the “binding with the ATPase domain of GRP78 (NMR)” value in assay [4] is given as “direct binding”.

The record behind these values is US20050053993A1, “Uses of an endothelial cell receptor” (priority 2002, published 2005).
